Assays:
Assay in all cases: AUC
[1] = biological target: E. faecalis S613 LiaR (wild type, full length) (Enterococcus faecalis S613)
[2] = biological target: LiaR^(DBD), isolated DNA binding domain of wild-type E. faecalis S613 LiaR (residues 140-206) (Enterococcus faecalis S613)
[3] = biological target: LiaR^(DBD)D191N, isolated DNA binding domain of E. faecalis S613 LiaR (residues 140-206) with D191N (Enterococcus faecalis S613)
[4] = biological target: LiaR^D50E (phosphomimetic mutant of E. faecalis S613 LiaR) (Enterococcus faecalis S613)
[5] = biological target: LiaR^D191N (adaptive mutant of E. faecalis S613 LiaR) (Enterococcus faecalis S613)

For “E. faecalis S613 LiaR (wild type, full length) (natural protein)”, the Kd [1] was 24000 nM and the stoichiometry N [1] was 4.
In the case of “LiaR^(DBD), isolated DNA binding domain of wild-type E. faecalis S613 LiaR (residues 140-206) (domain or fragment)”, the Kd [2] is reported as 2000 nM and the stoichiometry N [2] is reported as 2.
In the case of “LiaR^(DBD)D191N, isolated DNA binding domain of E. faecalis S613 LiaR (residues 140-206) with D191N (domain or fragment)”, the Kd [3] is reported as under 40 nM and the stoichiometry N [3] is reported as 2.
For “LiaR^D50E (phosphomimetic mutant of E. faecalis S613 LiaR) (natural protein)”, the stoichiometry N [4] was 4.
In the case of “LiaR^D191N (adaptive mutant of E. faecalis S613 LiaR) (natural protein)”, the Kd [5] is reported as under 60 nM and the stoichiometry N [5] is reported as 4.
